Like-named read-outs stand apart in the source and are kept apart here.
Assays:
[1] = molecular target: TSHR coated onto tubes (TSHR coated tubes) (human) (UniProt P16473); assay: TSHR coated tubes, in presence of HBD pool
[2] = molecular target: TSHR coated onto tubes (TSHR coated tubes) (human) (UniProt P16473); assay: TSHR coated tubes, in the presence of HBD pool (Table 5)
[3] = molecular target: TSHR coated onto tubes (TSHR coated tubes) (human) (UniProt P16473); assay: TSHR coated tubes, in the presence of HBD pool (Tables 4a, 4b)
[4] = molecular target: TSHR coated onto tubes (TSHR coated tubes) (human) (UniProt P16473); assay: TSHR coated tubes
[5] = molecular target: TSHR coated on ELISA plate wells (RSR Ltd) (human) (UniProt P16473); assay: ELISA on TSHR-coated wells, TSH-biotin binding with HBD pool (no competitor)
[6] = molecular target: TSHR coated on ELISA plate wells (RSR Ltd) (human) (UniProt P16473); assay: ELISA on TSHR-coated wells, inhibition of 5C9 IgG-biotin binding
[7] = molecular target: TSHR coated on ELISA plate wells (RSR Ltd) (human) (UniProt P16473); assay: ELISA on TSHR-coated wells, inhibition of TSH-biotin binding
[8] = molecular target: human TSHR, wild type, expressed on CHO cells (human) (UniProt P16473); assay: cell-based or functional assay
[9] = molecular target: human TSHR with activating mutation A623I, on CHO cells (human) (UniProt P16473); assay: cell-based or functional assay
[10] = molecular target: human TSHR, wild type, expressed on CHO cells (human) (UniProt P16473); assay: cell-based or functional assay; remark: listed apart in the source

Substance: M22 IgG (human monoclonal thyroid stimulating autoantibody, hMAb TSHR1)
- % binding of labelled tracer [1]: 17%
- % of labelled protein bound [2]: 24%
- % of labelled protein bound [3]: 20%
- average % binding of labelled tracer [4]: 21%

Substance: TSH-biotin (ligand)
- Abs 450 nm [5]: 2.14 Abs 450 nm

Substance: 125I-labelled TSH (ligand)
- % binding of labelled tracer [1]: 12%
- % of labelled protein bound [2]: 15%
- % of labelled protein bound [3]: 12%
- average % binding of labelled tracer [4]: 14%

Substance: M22 IgG, human monoclonal thyroid stimulating autoantibody (hMAb TSHR1)
- % inhibition [6]: 28%
- % inhibition [7]: 15%

Substance: 9D33 IgG, mouse monoclonal antibody to the TSHR with blocking activity
- % inhibition of basal cyclic AMP production; Exp 3; 9D33 IgG 0.001 µg/mL [8]: 12%
- cyclic AMP; Exp 1; 9D33 1 µg/mL + TSH 3 ng/mL [8]: 28.7 pmol/mL
- cyclic AMP; Exp 1; 9D33 10 µg/mL + TSH 3 ng/mL [8]: 23.8 pmol/mL
- cyclic AMP; Exp 1; 9D33 10 µg/mL only [8]: 2.9 pmol/mL
- cyclic AMP; Exp 2; 9D33 1 µg/mL + TSH 3 ng/mL [8]: 19 pmol/mL
- cyclic AMP; Exp 2; 9D33 10 µg/mL + TSH 3 ng/mL [8]: 9.5 pmol/mL
- cyclic AMP; Exp 2; 9D33 10 µg/mL only [8]: 1.6 pmol/mL
- cyclic AMP; Exp 3; 9D33 0.01 µg/mL + TSH 3 ng/mL [8]: 47.1 pmol/mL
- cyclic AMP; Exp 3; 9D33 0.1 µg/mL + TSH 3 ng/mL [8]: 35.1 pmol/mL
- cyclic AMP; Exp 3; 9D33 1 µg/mL + TSH 3 ng/mL [8]: 27.8 pmol/mL
- cyclic AMP; Exp 3; 9D33 10 µg/mL + TSH 3 ng/mL [8]: 13.5 pmol/mL
- cyclic AMP; Exp 3; 9D33 100 µg/mL + TSH 3 ng/mL [8]: 10.5 pmol/mL
- cyclic AMP; Exp 3; 9D33 100 µg/mL only [8]: 1.14 pmol/mL
- cyclic AMP; Exp 4; 9D33 0.1 µg/mL + TSH 0.3 ng/mL [8]: 20.2 pmol/mL
- cyclic AMP; Exp 4; 9D33 1 µg/mL + TSH 0.3 ng/mL [8]: 9.01 pmol/mL
- cyclic AMP; Exp 4; 9D33 10 µg/mL + TSH 0.3 ng/mL [8]: 4.23 pmol/mL
- cyclic AMP; Exp 4; 9D33 100 µg/mL + TSH 0.3 ng/mL [8]: 3.53 pmol/mL
- cyclic AMP; Exp 4; 9D33 100 µg/mL only [8]: 0.99 pmol/mL
- cyclic AMP; Exp 5; 9D33 0.1 µg/mL + TSH 0.3 ng/mL [8]: 14.7 pmol/mL
- cyclic AMP; Exp 5; 9D33 1 µg/mL + TSH 0.3 ng/mL [8]: 6.38 pmol/mL
- cyclic AMP; Exp 5; 9D33 5 µg/mL + TSH 0.3 ng/mL [8]: 3.71 pmol/mL
- cyclic AMP; Exp 5; 9D33 10 µg/mL + TSH 0.3 ng/mL [8]: 3.57 pmol/mL
- cyclic AMP; Exp 5; 9D33 10 µg/mL only [8]: 2.07 pmol/mL
- basal cyclic AMP (buffer only 36.89); 9D33 IgG 0.001 µg/mL [9]: 29.6 pmol/mL
- basal cyclic AMP (buffer only 36.89); 9D33 IgG 0.01 µg/mL [9]: 27.6 pmol/mL
- basal cyclic AMP (buffer only 36.89); 9D33 IgG 0.1 µg/mL [9]: 31.8 pmol/mL
- basal cyclic AMP (buffer only 36.89); 9D33 IgG 1 µg/mL [9]: 40.1 pmol/mL
- cyclic AMP; Exp 1; 9D33 0.01 µg/mL + M22 3 ng/mL [10]: 47.5 pmol/mL
- cyclic AMP; Exp 1; 9D33 0.1 µg/mL + M22 3 ng/mL [10]: 27.6 pmol/mL
- cyclic AMP; Exp 1; 9D33 1 µg/mL + M22 3 ng/mL [10]: 5.25 pmol/mL
- cyclic AMP; Exp 1; 9D33 10 µg/mL + M22 3 ng/mL [10]: 2.5 pmol/mL
- cyclic AMP; Exp 1; 9D33 100 µg/mL + M22 3 ng/mL [10]: 2.13 pmol/mL
- cyclic AMP; Exp 1; 9D33 100 µg/mL only [10]: 1.51 pmol/mL
- cyclic AMP; Exp 2; 9D33 0.001 µg/mL + M22 3 ng/mL [10]: 79.1 pmol/mL
- cyclic AMP; Exp 2; 9D33 0.01 µg/mL + M22 3 ng/mL [10]: 60.2 pmol/mL
- cyclic AMP; Exp 2; 9D33 0.1 µg/mL + M22 3 ng/mL [10]: 38.7 pmol/mL
- cyclic AMP; Exp 2; 9D33 1 µg/mL + M22 3 ng/mL [10]: 6.03 pmol/mL
- cyclic AMP; Exp 2; 9D33 10 µg/mL + M22 3 ng/mL [10]: 0.67 pmol/mL
- cyclic AMP; Exp 2; 9D33 100 µg/mL + M22 3 ng/mL [10]: 1.42 pmol/mL
- cyclic AMP; Exp 2; 9D33 100 µg/mL only [10]: 1.76 pmol/mL
- cyclic AMP; Exp 3; 9D33 0.001 µg/mL + M22 0.3 ng/mL [10]: 12.8 pmol/mL
- cyclic AMP; Exp 3; 9D33 0.01 µg/mL + M22 0.3 ng/mL [10]: 15.2 pmol/mL
- cyclic AMP; Exp 3; 9D33 0.1 µg/mL + M22 0.3 ng/mL [10]: 5.38 pmol/mL
- cyclic AMP; Exp 3; 9D33 1 µg/mL + M22 0.3 ng/mL [10]: 0.83 pmol/mL
- cyclic AMP; Exp 3; 9D33 10 µg/mL + M22 0.3 ng/mL [10]: 0.97 pmol/mL
- cyclic AMP; Exp 3; 9D33 100 µg/mL + M22 0.3 ng/mL [10]: 1.03 pmol/mL
- cyclic AMP; Exp 3; 9D33 100 µg/mL only [10]: 0.88 pmol/mL
- cyclic AMP; Exp 4; 9D33 0.001 µg/mL + M22 0.3 ng/mL [10]: 43.2 pmol/mL
- cyclic AMP; Exp 4; 9D33 0.01 µg/mL + M22 0.3 ng/mL [10]: 38.9 pmol/mL
- cyclic AMP; Exp 4; 9D33 0.1 µg/mL + M22 0.3 ng/mL [10]: 27.6 pmol/mL
- cyclic AMP; Exp 4; 9D33 1 µg/mL + M22 0.3 ng/mL [10]: 2.66 pmol/mL
- cyclic AMP; Exp 4; 9D33 10 µg/mL + M22 0.3 ng/mL [10]: 1.25 pmol/mL
- cyclic AMP; Exp 4; 9D33 100 µg/mL + M22 0.3 ng/mL [10]: 2 pmol/mL
- cyclic AMP; Exp 4; 9D33 100 µg/mL only [10]: 2.38 pmol/mL

Reference: patent US8840891 (RSR, dated 2014)
